The record followed here is CN102875678A (WUXI PROGRAMMED ARTIFICIAL MOLECULAR EVOLUTION CO LTD, dated 2013).

In general, Kd refers to the free concentration of one partner at which half of the binding sites on the other are occupied at equilibrium, for simple one-to-one binding. A lower Kd goes with higher affinity.

In one assay the target is T1, 重组人CD20蛋白 (human, UniProt P11836 1-297, limits assumed).
T1 construct: also called hCD20
T1 sequence (looked up): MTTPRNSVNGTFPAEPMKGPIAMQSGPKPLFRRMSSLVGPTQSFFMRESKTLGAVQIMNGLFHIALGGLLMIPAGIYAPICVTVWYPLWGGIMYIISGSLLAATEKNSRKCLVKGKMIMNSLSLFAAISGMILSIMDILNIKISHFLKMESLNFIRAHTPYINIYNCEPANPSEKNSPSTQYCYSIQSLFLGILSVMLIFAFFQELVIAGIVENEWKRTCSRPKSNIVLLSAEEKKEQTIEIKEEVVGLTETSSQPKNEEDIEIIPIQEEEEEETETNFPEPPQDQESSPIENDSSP
Put plainly: Friguet method, full-length antibody and human CD20.

The target of assay [1] is hCD20 on B cell lines (Ramos, DHL-4, Daudi, Raji) (human) (UniProt P11836). Put plainly: cell-based or functional assay.
Assay [2] concerns the target 重组人CD20蛋白 (human) (UniProt P11836). Put plainly: Friguet method, full-length antibody and human CD20.
For assay [3] the target is unchanged. Kind of assay: Friguet method, Fab and human CD20 in solution, ELISA on immobilised human CD20.

Take “2F2 (即HuMax-CD20), full length (antibody)”: the Kd with 重组人CD20蛋白 came out at 0.121 nM. In assay [1], this molecule yielded an ADCC靶细胞裂解 (Raji细胞, MNC效应细胞, 51Cr释放) of 35% and a CDC细胞裂解比例 (Daudi和Raji细胞, 10μg/ml抗体, 人血清) above 80%. C2B8 (即Rituxan), full length (antibody) displayed a dissociation constant Kd with 重组人CD20蛋白 (human) [2] of 3.51 nM. Regarding C2B8 Fab, the Kd with 重组人CD20蛋白 (human) [3] stood at 1.83 nM.

B1: 全长8G3 (F8G3) (antibody)
chain 1: EVQLVESGGGLVQPGESLRLSCAGSGFTFNDYAMHWVRQMPGKGLEWVSTIYPW
chain 2: EIVLTQSPATLSLSPGERATLSCRASQFVGFYIHWYQQKPGQAPRLLIYAASERATGVPSRFSGSGSGTDFTLTISSLEPEDFAVYYCQQWLNNPFTFGQGTRLEII
On to B1, for which, in the assay with 重组人CD20蛋白, binding was put at a Kd of 0.037 nM.
